Source: patent publication US20220242961A1 (ABL BIO, published 2022)

What was measured:
[1] = target: T1, 4-1BB (antigen of the Octet kinetics) (human, UniProt Q07011 24-186, limits assumed); experiment: Octet Red 96 kinetics
T1 construct: the whole entry is named
Text: To explore the binding kinetics of the humanized antibody, this example performed the affinity ranking by using Octet Red 96.

human 4-1 BB-Fc protein = target: T2, human 4-1 BB-Fc protein (human, UniProt Q07011 24-186); experiment: ELISA on plate-coated human 4-1BB-Fc (0.1 ug/ml), goat anti-human IgG-HRP, TMB
T2 construct: also called extracellular domain 4-1 BB antigen; not shown: Fc part
Description: To evaluate the antigen binding activity, the antibody candidates were subjected to ELISA test. Briefly, microtiter plates were coated with human 4-1 BB-Fc protein at 0.1 μg/ml in PBS, 100 μl/well at 4° C. overnight, then blocked with 100 μl/well of 5% BSA. Serial dilutions of antibodies obtained in Example 1.1 were added to each well and incubated for 1-2 hours at RT. The plates were washed with PBS/Tween and then incubate with goat-anti-human IgG antibody conjugated with Horse Radish Peroxidase (HRP) for 1 hour at RT. After washing, the plates were developed with TMB substrate and analyzed by spectrophotometer at OD 450-630 nm.

Kd [1] [nM]	koff [1] [s⁻¹]	kon [1] [M⁻¹ s⁻¹]	EC50 (read off the curve) (human 4-1 BB-Fc protein) [nM]	Binder
0.79	0.000597	755000	–	41B03 (antibody, human IgG4 S228P, V domains shown) VH: EVQLLESGGGLVQPGGSLRLSCAASGFTFSSNVMNWVRQAPGKGLEWVSEISHSGSTNYNPSLKSRFTISRDNSKNTLYLQMNSLRAEDTAVYYCAVGAGNLGYWGQGTLVTVSS VL: EIVLTQSPGTLSLSPGERATLSCQASQDISNYLNWYQQKPGQAPRLLIYGASSRATGIPDRFSGSGSGTDFTLTISRLEPEDFAVYYCQQYNSYPITFGQGTKLEIKR
–	–	–	~0.03	41B02 (antibody, human IgG4 S228P, lambda, V domains shown, also called anti-4-1BB antibody 41B02; 41B02 clone) VH: EVQLLESGGGLVQPGGSLRLSCAASGFTFSGYDMSWVRQAPGKGLEWVSVIYPDDGNTYYADSVKGRFTISRDNSKNTLYLQMNSLRAEDAAVYYCAKHGGQKPTTKSSSAYGMDGWGQGTLVTVSS VL: QSVLTQPPSASGTPGRRVTISCSGSSSNIGNNYVTWYQQLPGTAPKLLIYADSHRPSGVPDRFSGSKSGTSASLAISGLRSEDEADYYCATWDYSLSGYVFGGGTKLTVLG
–	–	–	~0.03	41B02.01 (antibody, human IgG4 S228P, lambda, V domains shown) VH: EVQLLESGGGLVQPGGSLRLSCAASGFTFSGYDMSWVRQAPGKGLEWVSVIYPDDGNTYYADSVKGRFTISRDNSKNTLYLQMNSLRAEDTAVYYCAKHGGQKPTTKSSSAYGMDGWGQGTLVTVSS VL: QSVLTQPPSASGTPGQRVTISCSGSSSNIGNNYVTWYQQLPGTAPKLLIYADSHRPSGVPDRFSGSKSGTSASLAISGLRSEDEADYYCATWDYSLSGYVFGGGTKLTVLG
